This assay concerns the target FLAG epitope Trypsin site N-terminally tagged 9 repeat GG biopolymer (SEQ ID NO:20).

As to Trypsin (type XI DPCC treated) (enzyme), the completeness of the Trypsin cleavage reaction, by relative mobility on SDS gels amounted to 100%.
